Reference: patent US10722576 (dated 2020)
Where two headings read alike, the source gives them in different places.

Experiments:
Test in all cases: ELISA
human TfR-1 [1] = molecular target: T1, human TfR-1 (human, UniProt P02786)
human TfR-1 [2] = molecular target: T1, human TfR-1; remark: listed apart in the source
human TfR-1 [3] = molecular target: T1, human TfR-1; remark: listed apart in the source
human TfR-2 = molecular target: T2, human TfR-2 (human, UniProt Q9UP52)
T2 chain: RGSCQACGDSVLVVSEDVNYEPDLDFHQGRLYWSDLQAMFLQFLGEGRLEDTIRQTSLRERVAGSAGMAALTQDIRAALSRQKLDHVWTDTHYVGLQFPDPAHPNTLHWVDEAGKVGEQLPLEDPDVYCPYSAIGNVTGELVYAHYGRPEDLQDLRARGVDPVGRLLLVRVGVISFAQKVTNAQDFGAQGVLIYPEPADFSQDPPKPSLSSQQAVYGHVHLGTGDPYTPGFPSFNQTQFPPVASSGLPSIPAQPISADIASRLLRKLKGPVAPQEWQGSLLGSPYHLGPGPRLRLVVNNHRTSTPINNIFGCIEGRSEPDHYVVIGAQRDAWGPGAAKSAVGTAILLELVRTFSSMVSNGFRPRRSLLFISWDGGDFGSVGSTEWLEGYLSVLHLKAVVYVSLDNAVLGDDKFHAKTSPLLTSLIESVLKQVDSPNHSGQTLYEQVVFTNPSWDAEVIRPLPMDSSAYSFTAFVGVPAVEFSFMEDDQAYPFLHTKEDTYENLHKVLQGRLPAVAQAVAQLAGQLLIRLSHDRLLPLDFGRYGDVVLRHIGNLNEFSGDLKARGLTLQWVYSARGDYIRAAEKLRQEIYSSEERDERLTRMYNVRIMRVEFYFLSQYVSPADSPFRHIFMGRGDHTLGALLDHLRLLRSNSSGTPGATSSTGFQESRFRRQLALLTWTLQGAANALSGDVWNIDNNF

mouse TfR-1 [4] = molecular target: T3, mouse TfR-1 (mouse, UniProt Q62351)
T3 sequence (Q62351 89-763): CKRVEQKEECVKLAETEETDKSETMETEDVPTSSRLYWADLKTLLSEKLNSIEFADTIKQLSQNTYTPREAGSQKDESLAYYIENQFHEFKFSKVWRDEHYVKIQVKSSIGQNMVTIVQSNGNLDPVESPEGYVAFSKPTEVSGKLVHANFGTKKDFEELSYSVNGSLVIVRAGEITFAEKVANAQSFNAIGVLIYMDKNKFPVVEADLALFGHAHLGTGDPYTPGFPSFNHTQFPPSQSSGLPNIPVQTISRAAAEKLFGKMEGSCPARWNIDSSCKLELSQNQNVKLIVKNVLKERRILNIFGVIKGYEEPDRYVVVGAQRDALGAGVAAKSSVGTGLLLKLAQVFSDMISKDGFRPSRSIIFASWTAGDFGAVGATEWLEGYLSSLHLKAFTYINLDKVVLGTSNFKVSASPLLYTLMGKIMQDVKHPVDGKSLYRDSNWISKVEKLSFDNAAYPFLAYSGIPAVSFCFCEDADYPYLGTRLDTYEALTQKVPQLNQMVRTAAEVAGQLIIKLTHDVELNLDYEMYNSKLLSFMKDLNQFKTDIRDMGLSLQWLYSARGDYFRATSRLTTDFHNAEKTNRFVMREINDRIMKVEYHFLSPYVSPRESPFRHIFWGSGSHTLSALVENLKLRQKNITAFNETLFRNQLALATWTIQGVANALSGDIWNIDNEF

mouse TfR-1 [5] = molecular target: T3, mouse TfR-1; remark: listed apart in the source

T1 sequence (P02786 89-760): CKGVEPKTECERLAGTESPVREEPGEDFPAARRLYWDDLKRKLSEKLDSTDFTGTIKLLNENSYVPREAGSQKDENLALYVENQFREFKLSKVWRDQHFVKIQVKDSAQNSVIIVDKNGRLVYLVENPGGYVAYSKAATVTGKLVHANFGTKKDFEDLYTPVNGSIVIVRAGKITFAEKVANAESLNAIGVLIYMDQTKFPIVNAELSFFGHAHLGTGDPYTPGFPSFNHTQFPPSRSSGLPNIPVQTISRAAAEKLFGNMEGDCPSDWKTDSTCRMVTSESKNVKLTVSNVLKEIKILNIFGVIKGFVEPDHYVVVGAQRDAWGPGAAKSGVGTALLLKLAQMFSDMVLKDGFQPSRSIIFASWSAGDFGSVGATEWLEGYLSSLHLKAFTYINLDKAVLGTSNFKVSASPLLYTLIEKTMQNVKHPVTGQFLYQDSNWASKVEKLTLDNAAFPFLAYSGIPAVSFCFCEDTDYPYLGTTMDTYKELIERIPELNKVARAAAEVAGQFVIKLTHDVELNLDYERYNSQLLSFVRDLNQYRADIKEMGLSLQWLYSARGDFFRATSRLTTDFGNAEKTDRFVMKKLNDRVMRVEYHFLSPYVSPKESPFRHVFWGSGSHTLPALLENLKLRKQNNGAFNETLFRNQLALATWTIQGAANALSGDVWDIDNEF

B1: F02-hFc (designed binder)
chain: ARVDQTPQTITKETGESLTINCVLRDNDCTLSSTHWYRKKSGSTNEERISKGGRYVETVNSGSKSFSLRINDLTVEDSGTYRCNVYAMTRNWWCDVYGGGTVVTVNAASGA
B1 gave an EC50 (human TfR-1 [1]) of 9 nM, an EC50 (human TfR-1 [2]) of roughly 100 nM and an EC50 (human TfR-1 [3]) of 26.3 nM. The binding result (human TfR-2) was “no binding”, the EC50 (mouse TfR-1 [4]) was 34.2 nM and the EC50 (mouse TfR-1 [5]) was 34.3 nM.

B2: H01-Fc (designed binder)
chain: ARVDQTPQTITKETGESLTINCVLRDSNCALSSTYWYRKKSGSTKEESISKGGRYVETVNSGSKSFSLRINDLTVEDSGTYRCNVWHDLVWSVCTTDVYGGGTVVTVNAASGA
With B2 the EC50 (human TfR-1 [2]) was roughly 100 nM and the binding result (human TfR-2) was “no binding”.
